Broadly, the Kd is a measure of binding affinity in units of concentration.

This passage reports binding signal, binding result and Kd results from PMC9192595, “Dynamic interaction of BRCA2 with telomeric G-quadruplexes underlies telomere replication homeostasis”.

Series [1] has as its target T1, BRCA2OB (human, UniProt P51587 2665-3197).
T1 sequence: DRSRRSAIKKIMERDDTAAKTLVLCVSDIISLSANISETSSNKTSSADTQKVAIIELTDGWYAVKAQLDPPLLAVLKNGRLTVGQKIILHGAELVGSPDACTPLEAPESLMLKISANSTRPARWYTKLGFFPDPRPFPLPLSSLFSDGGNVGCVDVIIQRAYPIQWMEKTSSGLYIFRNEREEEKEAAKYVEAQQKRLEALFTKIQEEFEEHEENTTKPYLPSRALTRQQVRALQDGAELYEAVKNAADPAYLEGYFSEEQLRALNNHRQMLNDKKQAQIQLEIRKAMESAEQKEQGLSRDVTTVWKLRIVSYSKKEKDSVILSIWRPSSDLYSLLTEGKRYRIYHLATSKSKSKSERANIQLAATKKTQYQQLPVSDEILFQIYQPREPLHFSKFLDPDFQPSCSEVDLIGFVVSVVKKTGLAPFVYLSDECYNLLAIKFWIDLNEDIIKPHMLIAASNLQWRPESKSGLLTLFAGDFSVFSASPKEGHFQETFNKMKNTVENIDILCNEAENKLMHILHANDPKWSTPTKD
Briefly: EMSA; 100 mM KCl; EMSA: 10 nM probe, 50 mM Tris-HCl pH 7.5, 100 mM KCl, 2 mM b-ME, 10% glycerol, probe pre-incubated 37 C, gel 4 C (RAD51: +1 mM MgCl2, 2 mM ATP); smFRET: 50 mM Tris-HCl pH 7.9, 100 mM KCl, 20 mM NaCl, 1 mM DTT, 0.1 mg/ml BSA, 9% glycerol, 37 C. The settings on record: protein: recombinant; tags: N-MBP, C-6xHis; label: 5' 32P; intramolecular G4. A general note: Mobility shift assays separate free from complexed probe on a gel.

The target in series [2] is T2, RAD51 (human, UniProt Q06609 1-339). Briefly: EMSA; ATP; facilitated by BRCA2OB, about constant with dose; EMSA: 10 nM probe, 50 mM Tris-HCl pH 7.5, 100 mM KCl, 2 mM b-ME, 10% glycerol, probe pre-incubated 37 C, gel 4 C (RAD51: +1 mM MgCl2, 2 mM ATP); smFRET: 50 mM Tris-HCl pH 7.9, 100 mM KCl, 20 mM NaCl, 1 mM DTT, 0.1 mg/ml BSA, 9% glycerol, 37 C. The settings on record: protein: commercial; label: 5' 32P; intramolecular G4.

In series [3] the target is T3, POT1OB (human, UniProt Q9NUX5 10-278).
T3 sequence: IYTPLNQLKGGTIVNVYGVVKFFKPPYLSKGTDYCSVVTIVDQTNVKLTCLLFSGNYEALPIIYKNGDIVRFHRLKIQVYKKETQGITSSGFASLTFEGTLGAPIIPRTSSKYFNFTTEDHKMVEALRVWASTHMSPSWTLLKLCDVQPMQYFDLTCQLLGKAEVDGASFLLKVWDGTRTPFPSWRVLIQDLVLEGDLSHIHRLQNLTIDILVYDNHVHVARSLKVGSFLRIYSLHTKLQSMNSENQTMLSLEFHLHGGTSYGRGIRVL
Briefly: EMSA; 100 mM KCl; EMSA: 10 nM probe, 50 mM Tris-HCl pH 7.5, 100 mM KCl, 2 mM b-ME, 10% glycerol, probe pre-incubated 37 C, gel 4 C (RAD51: +1 mM MgCl2, 2 mM ATP); smFRET: 50 mM Tris-HCl pH 7.9, 100 mM KCl, 20 mM NaCl, 1 mM DTT, 0.1 mg/ml BSA, 9% glycerol, 37 C. The following applies: protein: recombinant, tags: N-MBP, C-6xHis, label: 5' 32P.

Series [4] addresses T1, BRCA2OB. The series is described as above. The following applies: protein: recombinant; tags: N-MBP, C-6xHis; label: 5' 32P; intramolecular G4. The source holds these as a separate data set.
The target of series [5] is T1, BRCA2OB. Described as above. The settings on record: protein: recombinant; tags: N-MBP, C-6xHis; label: 5' 32P; G-triplex / G3:G4.
Series [6] addresses T1, BRCA2OB. Described as above. The settings on record: protein: recombinant; tags: N-MBP, C-6xHis; label: 5' 32P; intramolecular G4. The source holds these as a separate data set.
The target in series [7] is T1, BRCA2OB. Briefly: EMSA; 100 mM KCl; rough estimate, max protein 1 uM; EMSA: 10 nM probe, 50 mM Tris-HCl pH 7.5, 100 mM KCl, 2 mM b-ME, 10% glycerol, probe pre-incubated 37 C, gel 4 C (RAD51: +1 mM MgCl2, 2 mM ATP); smFRET: 50 mM Tris-HCl pH 7.9, 100 mM KCl, 20 mM NaCl, 1 mM DTT, 0.1 mg/ml BSA, 9% glycerol, 37 C. The following applies: protein: recombinant, tags: N-MBP, C-6xHis, label: 5' 32P.

Series [8] concerns the target T2, RAD51. In words: EMSA; 250 nM RAD51, 2 mM ATP, no BRCA2OB; EMSA: 10 nM probe, 50 mM Tris-HCl pH 7.5, 100 mM KCl, 2 mM b-ME, 10% glycerol, probe pre-incubated 37 C, gel 4 C (RAD51: +1 mM MgCl2, 2 mM ATP); smFRET: 50 mM Tris-HCl pH 7.9, 100 mM KCl, 20 mM NaCl, 1 mM DTT, 0.1 mg/ml BSA, 9% glycerol, 37 C. The settings on record: protein: commercial; label: 5' 32P; intramolecular G4 (dynamic).

Series [9] concerns the target T1, BRCA2OB. Briefly: EMSA; 100 mM KCl; EMSA: 10 nM probe, 50 mM Tris-HCl pH 7.5, 100 mM KCl, 2 mM b-ME, 10% glycerol, probe pre-incubated 37 C, gel 4 C (RAD51: +1 mM MgCl2, 2 mM ATP); smFRET: 50 mM Tris-HCl pH 7.9, 100 mM KCl, 20 mM NaCl, 1 mM DTT, 0.1 mg/ml BSA, 9% glycerol, 37 C. The following applies: protein: recombinant; tags: N-MBP, C-6xHis; label: 5' 32P; intramolecular G4. This is another data set of the same source.

T2 sequence (Q06609 whole entry): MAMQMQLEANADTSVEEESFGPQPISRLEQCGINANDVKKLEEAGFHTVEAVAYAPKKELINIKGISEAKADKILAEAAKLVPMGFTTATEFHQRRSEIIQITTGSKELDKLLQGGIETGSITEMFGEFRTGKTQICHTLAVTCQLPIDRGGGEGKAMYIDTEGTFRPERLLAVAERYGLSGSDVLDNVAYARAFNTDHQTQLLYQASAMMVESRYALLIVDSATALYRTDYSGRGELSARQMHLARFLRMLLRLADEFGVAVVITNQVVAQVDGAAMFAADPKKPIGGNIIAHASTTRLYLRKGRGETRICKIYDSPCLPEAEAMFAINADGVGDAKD

For the molecule GGTTTGGGTTTGGGTTTGGGTTTGGGTTTG (structured_DNA) [TelG5TTT], in series [1], the binding signal was around 9 fold vs TelG5. Moreover, the binding result in [2] is given as “binds”; in series [3] (intramolecular G4), “no binding”. For the same molecule, the Kd in series [4] is 456 nM.

Turning to GGTTAGGGTTAGGGTTAGTGTTAGGGTTAG (structured_DNA) [TelG5-G3], the binding signal in [5] worked out at 3 fold vs TelG5.

With GGTTTGGGTTGGGTTGGGTTGGGTTTG (structured_DNA) [TelG5TT], the binding signal in series [6] stood at 13 fold vs TelG5.

In the case of GGTTAGGGTTAGGGTTAGGGTTAGGGTTAG (structured_DNA) [TelG5], in [7] (intramolecular G4 (dynamic)), the dissociation constant (Kd) was 4400 nM. In addition, the binding result in series [3] (intramolecular G4 (dynamic)) and in [8] was “binds” in each case.

As to GGTTGGGGTTGGGGTTGGGGTTGGGGTTGG (structured_DNA) [TelG5T2G4], the dissociation constant Kd in series [7] (intramolecular G4) is 1400 nM. The binding signal in [9] is around 3 fold vs TelG5. Besides, in series [3] (intramolecular G4), the binding result was “no binding”.
